Target: Factor H domains 19-20 (human) (UniProt P08603)
Test: MST; FH19-20 labelled with RED-tris-NTA dye (300 nM stock, mixed 1:1 with ligand), FhbA proteins titrated, PBS/0.025% Tween-20, 22 C

Factor H domains 19-20 (human), sequence (P08603 1104-1231): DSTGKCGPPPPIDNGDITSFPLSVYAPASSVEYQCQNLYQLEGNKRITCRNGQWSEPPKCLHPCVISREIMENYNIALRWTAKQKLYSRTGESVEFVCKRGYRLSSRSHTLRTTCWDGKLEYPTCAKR

Row | Substance | Kd [µM]
1 | BhFhbA Phe154Ala (from UniProt W5SB08 44-202) (domain or fragment) | 6
2 | FhbA homologue from Borrelia duttonii, wild type (natural protein) | 1.06

From publication PMC8967061
